In US20200199241A1 (Chugai, published 2020):

Target: T1, soluble human FcRn complexed with β2-microglobulin (human, UniProt P61769 21-119, limits assumed)
T1 construct: also called hFcRn
Assay: Biacore SPR, pH 7.0;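 note: test antibodies captured on a Protein L chip with human FcRn flowed over as analyte, KD obtained as the ratio of dissociation to association rate constants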

Row | Kd [nM] | Binder
1 | 126 | IgG1-F1200 (antibody, EU numbering; copies: 2 + 2) heavy: QVQLQESGPGLVKPSETLSLTCAVSGHSISHDHAWSWVRQPPGEGLEWIGFISYSGITNYNPSLQGRVTISRDNSKNTLYLQMNSLRAEDTAVYYCARSLARTTAMDYWGEGTLVTVSSASTKGPSVFPLAPSSKSTSGGTAALGCLVKDYFPEPVTVSWNSGALTSGVHTFPAVLQSSGLYSLSSVVTVPSSSLGTQTYICNVNHKPSNTKVDKKVEPKSCDKTHTCPPCPAPELLGGPSVFLFPPKPKDVLYITRTPEVTCVVVDVSHEDPEVKFNWYVDGVEVHNAKTKPREEQYNSTYRVVSVLTVLHQDWLNGKEYKCKVSNKALPAPIEKTISKAKGQPREPQVYTLPPSRDELTKNQVSLTCLVKGFYPSDIAVEWESNGQPENNYKTTPPVLDSDGSFFLYSKLTVDKSRWQQGNVFSCSVMHEALHYHVTRKELSLSP light: not shown
2 | 169 | IgG1-F1206 (antibody, EU numbering; copies: 2 + 2) heavy: QVQLQESGPGLVKPSETLSLTCAVSGHSISHDHAWSWVRQPPGEGLEWIGFISYSGITNYNPSLQGRVTISRDNSKNTLYLQMNSLRAEDTAVYYCARSLARTTAMDYWGEGTLVTVSSASTKGPSVFPLAPSSKSTSGGTAALGCLVKDYFPEPVTVSWNSGALTSGVHTFPAVLQSSGLYSLSSVVTVPSSSLGTQTYICNVNHKPSNTKVDKKVEPKSCDKTHTCPPCPAPELLGGPSVFLFPPKPKDVLYITRQPEVTCVVVDVSHEDPEVKFNWYVDGVEVHNAKTKPREEQYNSTYRVVSVLTVLHQDWLNGKEYKCKVSNKALPAPIEKTISKAKGQPREPQVYTLPPSRDELTKNQVSLTCLVKGFYPSDIAVEWESNGQPENNYKTTPPVLDSDGSFFLYSKLTVDKSRWQQGNVFSCSVMHEALHYHVTRKELSLSP light: not shown
3 | 1110 | IgG1-F1207 (antibody, EU numbering; copies: 2 + 2) heavy: QVQLQESGPGLVKPSETLSLTCAVSGHSISHDHAWSWVRQPPGEGLEWIGFISYSGITNYNPSLQGRVTISRDNSKNTLYLQMNSLRAEDTAVYYCARSLARTTAMDYWGEGTLVTVSSASTKGPSVFPLAPSSKSTSGGTAALGCLVKDYFPEPVTVSWNSGALTSGVHTFPAVLQSSGLYSLSSVVTVPSSSLGTQTYICNVNHKPSNTKVDKKVEPKSCDKTHTCPPCPAPELLGGPSVFLFPPKPKDTLMISRTPEVTCVVVDVSHEDPEVKFNWYVDGVEVHNAKTKPREEQYNSTYRVVSVLTVLHQDWLNGKEYKCKVSNKALPAPEEKTISKAKGQPREPQVYTLPPSRDELTKNQVSLTCLVKGFYPSDIAVEWESNGQPENNYKTTPPVLDSDGSFFLYSKLTVDKSRWQQGNVFSCSVLHEALHSHYTQKSLSLSP light: not shown
4 | 152 | IgG1-F1203 (antibody, EU numbering; copies: 2 + 2) heavy: QVQLQESGPGLVKPSETLSLTCAVSGHSISHDHAWSWVRQPPGEGLEWIGFISYSGITNYNPSLQGRVTISRDNSKNTLYLQMNSLRAEDTAVYYCARSLARTTAMDYWGEGTLVTVSSASTKGPSVFPLAPSSKSTSGGTAALGCLVKDYFPEPVTVSWNSGALTSGVHTFPAVLQSSGLYSLSSVVTVPSSSLGTQTYICNVNHKPSNTKVDKKVEPKSCDKTHTCPPCPAPELLGGPSVFLFPPKPKDTLYISRQPEVTCVVVDVSHEDPEVKFNWYVDGVEVHNAKTKPREEQYNSTYRVVSVLTVLHQDWLNGKEYKCKVSNKALPAPIEKTISKAKGQPREPQVYTLPPSRDELTKNQVSLTCLVKGFYPSDIAVEWESNGQPENNYKTTPPVLDSDGSFFLYSKLTVDKSRWQQGNVFSCSVMHEALHYHVTRKELSLSP light: not shown
5 | 88.1 | IgG1-F1202 (antibody, EU numbering; copies: 2 + 2) heavy: QVQLQESGPGLVKPSETLSLTCAVSGHSISHDHAWSWVRQPPGEGLEWIGFISYSGITNYNPSLQGRVTISRDNSKNTLYLQMNSLRAEDTAVYYCARSLARTTAMDYWGEGTLVTVSSASTKGPSVFPLAPSSKSTSGGTAALGCLVKDYFPEPVTVSWNSGALTSGVHTFPAVLQSSGLYSLSSVVTVPSSSLGTQTYICNVNHKPSNTKVDKKVEPKSCDKTHTCPPCPAPELLGGPSVFLFPPKPKDVLYITREPEVTCVVVDVSHEDPEVKFNWYVDGVEVHNAKTKPREEQYNSTYRVVSVLTVLHQDWLNGKEYKCKVSNKALPAPIEKTISKAKGQPREPQVYTLPPSRDELTKNQVSLTCLVKGFYPSDIAVEWESNGQPENNYKTTPPVLDSDGSFFLYSKLTVDKSRWQQGNVFSCSVMHEALHYHVTRKELSLSP light: not shown
6 | 571 | IgG1-F1208 (antibody, EU numbering; copies: 2 + 2) heavy: QVQLQESGPGLVKPSETLSLTCAVSGHSISHDHAWSWVRQPPGEGLEWIGFISYSGITNYNPSLQGRVTISRDNSKNTLYLQMNSLRAEDTAVYYCARSLARTTAMDYWGEGTLVTVSSASTKGPSVFPLAPSSKSTSGGTAALGCLVKDYFPEPVTVSWNSGALTSGVHTFPAVLQSSGLYSLSSVVTVPSSSLGTQTYICNVNHKPSNTKVDKKVEPKSCDKTHTCPPCPAPELLGGPSVFLFPPKPKDTAYISRTPEVTCVVVDVSHEDPEVKFNWYVDGVEVHNAKTKPREEQYNSTYRVVSVLTVLHQDWLNGKEYKCKVSNKALPAPIEKTISKAKGQPREPQVYTLPPSRDELTKNQVSLTCLVKGFYPSDIAVEWESNGQPENNYKTTPPVLDSDGSFFLYSKLTVDKSRWQQGNVFSCSVMHEALHYHVTQKSLSLSP light: not shown
7 | 118 | IgG1-F1204 (antibody, EU numbering; copies: 2 + 2) heavy: QVQLQESGPGLVKPSETLSLTCAVSGHSISHDHAWSWVRQPPGEGLEWIGFISYSGITNYNPSLQGRVTISRDNSKNTLYLQMNSLRAEDTAVYYCARSLARTTAMDYWGEGTLVTVSSASTKGPSVFPLAPSSKSTSGGTAALGCLVKDYFPEPVTVSWNSGALTSGVHTFPAVLQSSGLYSLSSVVTVPSSSLGTQTYICNVNHKPSNTKVDKKVEPKSCDKTHTCPPCPAPELLGGPSVFLFPPKPKDTLYITRQPEVTCVVVDVSHEDPEVKFNWYVDGVEVHNAKTKPREEQYNSTYRVVSVLTVLHQDWLNGKEYKCKVSNKALPAPIEKTISKAKGQPREPQVYTLPPSRDELTKNQVSLTCLVKGFYPSDIAVEWESNGQPENNYKTTPPVLDSDGSFFLYSKLTVDKSRWQQGNVFSCSVMHEALHYHVTRKELSLSP light: not shown
8 | 107 | IgG1-F1201 (antibody, EU numbering; copies: 2 + 2) heavy: QVQLQESGPGLVKPSETLSLTCAVSGHSISHDHAWSWVRQPPGEGLEWIGFISYSGITNYNPSLQGRVTISRDNSKNTLYLQMNSLRAEDTAVYYCARSLARTTAMDYWGEGTLVTVSSASTKGPSVFPLAPSSKSTSGGTAALGCLVKDYFPEPVTVSWNSGALTSGVHTFPAVLQSSGLYSLSSVVTVPSSSLGTQTYICNVNHKPSNTKVDKKVEPKSCDKTHTCPPCPAPELLGGPSVFLFPPKPKDVLYISREPEVTCVVVDVSHEDPEVKFNWYVDGVEVHNAKTKPREEQYNSTYRVVSVLTVLHQDWLNGKEYKCKVSNKALPAPIEKTISKAKGQPREPQVYTLPPSRDELTKNQVSLTCLVKGFYPSDIAVEWESNGQPENNYKTTPPVLDSDGSFFLYSKLTVDKSRWQQGNVFSCSVMHEALHYHVTRKELSLSP light: not shown
9 | 198 | IgG1-F1205 (antibody, EU numbering; copies: 2 + 2) heavy: QVQLQESGPGLVKPSETLSLTCAVSGHSISHDHAWSWVRQPPGEGLEWIGFISYSGITNYNPSLQGRVTISRDNSKNTLYLQMNSLRAEDTAVYYCARSLARTTAMDYWGEGTLVTVSSASTKGPSVFPLAPSSKSTSGGTAALGCLVKDYFPEPVTVSWNSGALTSGVHTFPAVLQSSGLYSLSSVVTVPSSSLGTQTYICNVNHKPSNTKVDKKVEPKSCDKTHTCPPCPAPELLGGPSVFLFPPKPKDVLYISRQPEVTCVVVDVSHEDPEVKFNWYVDGVEVHNAKTKPREEQYNSTYRVVSVLTVLHQDWLNGKEYKCKVSNKALPAPIEKTISKAKGQPREPQVYTLPPSRDELTKNQVSLTCLVKGFYPSDIAVEWESNGQPENNYKTTPPVLDSDGSFFLYSKLTVDKSRWQQGNVFSCSVMHEALHYHVTRKELSLSP light: not shown
